In PMC6136348, “In the quest for new targets for pathogen eradication: the adenylosuccinate synthetase from the bacterium Helicobacter pylori” (Journal of Enzyme Inhibition and Medicinal Chemistry, 2018):

Target: the molecule itself
Assay: SEC; Sephacryl S-200 HR column calibrated with marker proteins; 50 mM phosphate buffer pH 6.5, 150 mM NaCl, 2 mM EDTA, 1 mM DTT, +4 °C; sample loaded at ~15 mg/mL total protein (second step of the purification)

B1: Helicobacter pylori adenylosuccinate synthetase (AdSS) (enzyme, Helicobacter pylori (strain ATCC 26695), UniProt P56137 1-411, looked up)
chain: MADVVVGIQWGDEGKGKIVDRIAKDYDFVVRYQGGHNAGHTIVHKGVKHSLHLMPSGVLYPKCKNIISSAVVVSVKDLCEEISAFEDLENRLFVSDRAHVILPYHAKKDAFKEKSQNIGTTKKGIGPCYEDKMARSGIRMGDLLDDKILEEKLNAHFKAIEPFKKAYDLGENYEKDLMGYFKTYAPKICPFIKDTTSMLIEANQKGEKILLEGAQGTLLDIDLGTYPFVTSSNTTSASACVSTGLNPKAINEVIGITKAYSTRVGNGPFPSEDTTPMGDHLRTKGAEFGTTTKRPRRCGWLDLVALKYACALNGCTQLALMKLDVLDGIDAIKVCVAYERKGERLEIFPSDLKDCVPIYQTFKGWEKSVGVRKLDDLEPNVREYIRFIEKEVGVKIRLISTSPEREDTIFL
notes: Adenylosuccinate synthetase (AdSS, EC 6.3.4.4), product of the purA gene of Helicobacter pylori strain ATCC 26695; amplified from genomic DNA with primers for the 5' and the 3' end of the gene; theoretical monomer mass 45,742.72 Da; Cloned between NdeI and XhoI of pET21b; The printed reverse primer appears to carry a stop codon before the XhoI site, so the vector's C-terminal His tag is probably …
stoichiometry N: 2
